The text below walks through data of ChEMBL document CHEMBL1146311, “Carbonic anhydrase activators: L-Adrenaline plugs the active site entrance of isozyme II, activating better isoforms I, IV, VA, VII, and XIV” (Bioorg Med Chem Lett, 2007).

Common to all, as to settings: Homo sapiens; 10 uM
Substrate in series [1]: NCCc1c[nH]cn1
Description: (§1) Activity of human recombinant CA5A at 10 uM by stopped-flow technique
Substrate in series [2]: CNC[C@H](O)c1ccc(O)c(O)c1
Description: as §1
Substrate in series [3]: NCCc1c[nH]cn1
This is another data set of the same source.
Description: (§2) Activity of human recombinant CA4 at 10 uM by stopped-flow technique

Substrate in series [4]: CNC[C@H](O)c1ccc(O)c(O)c1
The source holds these as a separate data set.
Description: as §2

Substrate in series [5]: NCCc1c[nH]cn1
This is another data set of the same source.
Description: (§3) Activity of human recombinant CA14 at 10 uM by stopped-flow technique

Substrate in series [6]: CNC[C@H](O)c1ccc(O)c(O)c1
This is another data set of the same source.
Description: as §3

Substrate in series [7]: NCCc1c[nH]cn1
The source holds these as a separate data set.
Description: (§4) Activity of human recombinant CA7 at 10 uM by stopped-flow technique

Substrate in series [8]: CNC[C@H](O)c1ccc(O)c(O)c1
Description: as §4
This is another data set of the same source.

B1: Carbonic anhydrase 5A, mitochondrial (Homo sapiens), P35218 (protein)
chain: MLGRNTWKTSAFSFLVEQMWAPLWSRSMRPGRWCSQRSCAWQTSNNTLHPLWTVPVSVPGGTRQSPINIQWRDSVYDPQLKPLRVSYEAASCLYIWNTGYLFQVEFDDATEASGISGGPLENHYRLKQFHFHWGAVNEGGSEHTVDGHAYPAELHLVHWNSVKYQNYKEAVVGENGLAVIGVFLKLGAHHQTLQRLVDILPEIKHKDARAAMRPFDPSTLLPTCWDYWTYAGSLTTPPLTESVTWIIQKEPVEVAPSQLSAFRTLLFSALGEEEKMMVNNYRPLQPLMNRKVWASFQATNEGTRS
By kcat is commonly meant the maximal rate divided by the concentration of active sites. For B1, the kcat in series [1] was 8.6 10^5/s; in series [2], 3.9 10^5/s.

B2: Carbonic anhydrase 4 (Homo sapiens), P22748 (protein)
chain: MRMLLALLALSAARPSASAESHWCYEVQAESSNYPCLVPVKWGGNCQKDRQSPINIVTTKAKVDKKLGRFFFSGYDKKQTWTVQNNGHSVMMLLENKASISGGGLPAPYQAKQLHLHWSDLPYKGSEHSLDGEHFAMEMHIVHEKEKGTSRNVKEAQDPEDEIAVLAFLVEAGTQVNEGFQPLVEALSNIPKPEMSTTMAESSLLDLLPKEEKLRHYFRYLGSLTTPTCDEKVVWTVFREPIQLHREQILAFSQKLYYDKEQTVSMKDNVRPLQQLGQRTVIKSGAPGRPLPWALPALLGPMLACLLAGFLR
As to B2, the kcat in series [3] was 3.5 10^6/s; in series [4] it was 2.9 10^6/s.

B3: Carbonic anhydrase 14 (Homo sapiens), Q9ULX7 (protein)
chain: MLFSALLLEVIWILAADGGQHWTYEGPHGQDHWPASYPECGNNAQSPIDIQTDSVTFDPDLPALQPHGYDQPGTEPLDLHNNGHTVQLSLPSTLYLGGLPRKYVAAQLHLHWGQKGSPGGSEHQINSEATFAELHIVHYDSDSYDSLSEAAERPQGLAVLGILIEVGETKNIAYEHILSHLHEVRHKDQKTSVPPFNLRELLPKQLGQYFRYNGSLTTPPCYQSVLWTVFYRRSQISMEQLEKLQGTLFSTEEEPSKLLVQNYRALQPLNQRMVFASFIQAGSSYTTGEMLSLGVGILVGCLCLLLAVYFIARKIRKKRLENRKSVVFTSAQATTEA
Turning to B3, the kcat was 10 10^5/s in series [5] and 4.5 10^5/s in series [6].

B4: Carbonic anhydrase 7 (Homo sapiens), P43166 (protein)
chain: MTGHHGWGYGQDDGPSHWHKLYPIAQGDRQSPINIISSQAVYSPSLQPLELSYEACMSLSITNNGHSVQVDFNDSDDRTVVTGGPLEGPYRLKQFHFHWGKKHDVGSEHTVDGKSFPSELHLVHWNAKKYSTFGEAASAPDGLAVVGVFLETGDEHPSMNRLTDALYMVRFKGTKAQFSCFNPKCLLPASRHYWTYPGSLTTPPLSESVTWIVLREPICISERQMGKFRSLLFTSEDDERIHMVNNFRPPQPLKGRVVKASFRA
Turning to B4, the kcat in series [7] was 15.2 10^5/s; in series [8] it was 10.4 10^5/s.
